Assay results taken from the supplement of paper PMC10567573.

B1: TSN (parent)
chain: FVELQGFLAAEQDIREEIRKVVQS
B2: SMOC2 (parent)
chain: PALETQPQGDEEDIASRYPTLWTE

Variants of: B1
Assay: protein stability index of a GFP-peptide fusion (GPS, HEK-293T) (PSI 1-6); higher = more stable
Settings: c terminus: a fixed tail appended
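Further: lentivirally expressed fusions sorted by FACS into six bins by GFP to DsRed ratio, PSI derived from sequencing read proportions per bin multiplied by bin number.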

Protein stability index: each site, then its substitutions
A9: P 1.02; G 1.62; R 1.93; W 3.23; K 1.73; E 2.47; L 1.57; I 2.48; M 1.78; Q 1.63; N 2.25
G6: N 2.42; T 2.32; I 2.19; M 2.16; E 2.06; S 1.85; F 1.68; C 1.56
F1: R 3.12; G 3.24; P 2.9; W 1.14; K 3.83; Y 3.21; C 3.1; L 4.18; T 3.62; H 3.96; A 3.48; N 3.67; I 2.08
V2: Y 2.31; R 3.34; M 2.3; G 1.75; I 1.51; S 1.65; A 2.37; F 1.75; L 1.67; N 3.06; E 3.95; P 2.47; T 1.68; W 1.33; K 3.83; Q 1.17; D 4.19
A10: M 2.2; K 1.62; H 1.74; I 2.04; E 4.05; R 1.8; F 2.15; D 1.35; C 1.04
F7: D 2.84; C 2.68; A 1.64; E 3.11; T 2; Y 1.33; N 2.71; K 1.31; V 2.04; M 2.01; R 2.04; G 2.33; H 2.14
Q12: C 1.92; A 3.3; V 2.6; P 1.39; R 3.99; K 2.24; M 2.17; E 3.62
E3: T 2.59; F 1.6; C 2.23; H 2.9; Y 1.64; W 1.75; S 2.08; Q 2.4; M 2.97; P 1.53; K 1.4; R 1.25; N 2.45
D13: S 1.52; M 2.91; H 2.78; F 1.85; A 3.62; N 3.27
Q23: T 2.38; I 1.25; F 2.61; L 1.92; D 3.47; M 1.98; W 1.65; C 3.33
Q5: D 1.23; V 2.38; A 1.58; K 2.12; W 1; C 5.07
L4: N 1.43; T 3.35; K 1.8; Q 1.35; W 1.21; E 2.17; M 2.15; R 1.97; D 2.22; I 1.79; H 1.52
R19: K 2.67; I 1.78; Q 3.16; G 3; S 3.87; A 2.44; C 2.32; N 2.38; Y 1.46; T 2.25; D 1.6; V 1.97
R15: D 1.26; H 1.91; L 2.35; M 1.83; C 1.82; S 1.98; E 2.06; G 1.41; N 1.03; Y 1.76; W 1.39
L8: K 1.72; E 2.44; Y 1.8; M 2.07; N 2.31; C 1.83; S 1.47; R 3.58; G 1.07; D 2.68; P 2.99; Q 1.37
V22: C 3; I 3.83; P 3.2; R 1.7; G 1.55; F 2.67; E 2.23; K 1.62; W 2.27; L 1.97; Q 4.66; M 1.42; H 2.65
E11: A 1.05; R 2.52; K 2.13; W 3.13; C 1.92; L 2.02; D 1.39; F 1.29; I 1.86; Y 2.09; N 2.16
I14: T 2.01; E 3.21; D 1.4; A 2.73; Y 1.23; R 1.64; W 2.36
I18: Y 2.13; H 1.24; S 1.75; A 1.82; L 2.87; D 1.62; F 2.06; R 1.68; P 3.43
E17: H 2.3; R 1.48; G 2.42; M 2.49; V 2.91; Y 1.93; L 2.69
E16: D 3.34; L 1.76; H 1.34; R 2.3; S 1.18; T 1.14
S24: E 1.72; K 1.42; G 2.37
V21: N 2.47; S 1.45; I 3.69; M 1.21; Y 1.68; D 2.52; Q 2.13; G 1.69; T 3.32; A 1.29; K 1.79; E 1.55; P 2.51; W 2.27
K20: C 2.75; G 1.7; S 1.96; T 1.89; M 1.89; H 1.94; R 1.99; L 1.83; P 2.1; I 3.91; Y 2.21; A 2.27

Variants of: B2
Assay: as above
Settings: c terminus: a fixed tail appended

Protein stability index: each site, then its substitutions
P1: E 4.63; K 4.04; T 4.58
P19: F 4.87; N 4.72
E11: M 3.59; V 4.24; C 4.43; P 4.82; Q 4.22
E4: N 4.31; G 4.07; S 4.32
W22: L 5.78; H 5.48; Q 5.51
L3: T 4.9; P 5.08
E12: T 4.34; M 3.7; A 3.94
D13: G 3.85; Y 3.59; R 4.14; T 4.23; I 3.65; W 4.68
P7: V 4.06; I 5.37; G 4.5; Q 5.02; K 3.38
T23: R 5.13
A15: R 4.53; S 3.88; T 4.36; F 4.34; N 4.36; L 4.76; W 4.14
A2: N 5.04; Y 4.61
S16: A 4.5; K 4.18
R17: L 4.72; C 3.2; A 4.81; M 4.94
T5: I 4.45; E 4.99; P 4.58; M 5.01; S 4.3; H 4.64; R 4.93
Y18: E 4.74; A 4.64; Q 4.39; W 4.6; L 4.42; M 4.59
D10: W 3.98; V 3.69; P 4.6; G 3.68; L 4.33
L21: R 4.91; Y 3.92; H 5.91; E 5.39
G9: W 4.62; N 4.78; I 4.08; R 4.34
E24: Y 4.41; C 4.22; S 4.78
I14: Q 4.4; K 3.96; W 3.97
Q6: F 4.25; T 4.7; C 4.7; R 4.34; W 4.15; E 4.39; A 4.44
T20: H 4.87; R 3.88; D 5.59; Q 3.83; L 4.66; V 3.99; G 4.41
